Assay results as given in paper PMC12446779, “Structural basis of transglucosylation in dextran dextrinase, a homolog of anomer-inverting GH15 glucoside hydrolases” (The Journal of Biological Chemistry, 2025).

Substrate: OC[C@H]1O[C@H](F)[C@H](O)[C@@H](O)[C@@H]1O
Test: fluoride release, colorimetric (Alfusone), Michaelis-Menten fit
Format: biochemical, Gluconobacter oxydans
Conditions: 130 mM sodium acetate pH 4.2, 35 °C, 0.2 mg/ml BSA
Description: fluoride release, colorimetric (Alfusone), Michaelis-Menten fit on Δ382C (DDase-Δ382C)

B1: Δ382C (DDase-Δ382C) (Gluconobacter oxydans) (protein)
chain: MADNSDEQFVASDYTLLGDATDDPNGMVDMPAGQEPATTNAVPSGVEYNFLAATAGYYTVSFAYQNTANAAAYEQLSINGQNEPGVVEFDQTSGASTGTAYASVYLKAGLNSVELNNQTTDETNGLTPVPEDQLQASPAFQIGTSTVAAGASPSQETSAQSLAISNQTDMQAFVQGESMAPKQQWTFGPSLSELHVGSNDELNQLDFNAVWFRNVTPGQQAETYSPYFKSNESFDANGVLHVNYGAYSPTGQALPVQIQATYANVPNENLIVENLSLTNQNASGTQPLVWDVMNATGINPGEVSSTTWDPTHNAWIVTEDQGSGKSPLYLAIGDYQVSNSTHAAGVDGVNVRGSYSLSSGASGNPSLNAPDQGVIGGFENNGTMVGSSSGASGTNLAVGTTDSDVTLNPGQTVDLSYYLSTATSLSQLDANLDKYTNTVGSTTSSTPMTDATGASAASSWTQQTATAWDDTLNQAYNLAGSTETSGQAATAASGQTLDPTSSAAAQSAYRSSLINILQAQSPEYGSFMASTNPSYEYKVWVRDSAATAIGLDDAGLTQPADKFWRWMASVEQNGMNATYSGNASGTFSTNYGEFDQNLPIGFVAPENDSQGLFLIGSYRHYEQMLSEGQTQQAQSFISDPTVRQALVNSANWIQENIGSNGLGPADYSIWEDMYGYHTFTQVTYAEGLNAASQLASAMGEGNQAQTWATGAETIKDAILRPTTASTPGLWNAQEGHFVEMINPNGTIDNTIDADTNIAAVFGLVSPTSIYATENAQAVENALTQDNFGLSRYQNETFYQSSQWSPGGTYEAQGISPSWPQMTAYDSIVSMDSGNTTQANNDLSWIEQSYDNGGTPPGESYDWARGQPIESTSSEPVTASWYVQDLLNSTGQTSTLMPAITGQ
notes: C-terminal truncation Met1-Ser902 (domains N1, N2, HLH, A); N-terminal His6 tag (…) kept; E. coli BL21-CodonPlus(DE3)-RIL; 921 residues with tag; dimer 195,604 Da
  Km: 40 ± 4 mM
  kcat: 15 ± 1 s⁻¹
  kcat/Km: 380 M⁻¹ s⁻¹

B2: Δ382C (DDase-Δ382C) (Gluconobacter oxydans; E671Q) (protein)
chain: MADNSDEQFVASDYTLLGDATDDPNGMVDMPAGQEPATTNAVPSGVEYNFLAATAGYYTVSFAYQNTANAAAYEQLSINGQNEPGVVEFDQTSGASTGTAYASVYLKAGLNSVELNNQTTDETNGLTPVPEDQLQASPAFQIGTSTVAAGASPSQETSAQSLAISNQTDMQAFVQGESMAPKQQWTFGPSLSELHVGSNDELNQLDFNAVWFRNVTPGQQAETYSPYFKSNESFDANGVLHVNYGAYSPTGQALPVQIQATYANVPNENLIVENLSLTNQNASGTQPLVWDVMNATGINPGEVSSTTWDPTHNAWIVTEDQGSGKSPLYLAIGDYQVSNSTHAAGVDGVNVRGSYSLSSGASGNPSLNAPDQGVIGGFENNGTMVGSSSGASGTNLAVGTTDSDVTLNPGQTVDLSYYLSTATSLSQLDANLDKYTNTVGSTTSSTPMTDATGASAASSWTQQTATAWDDTLNQAYNLAGSTETSGQAATAASGQTLDPTSSAAAQSAYRSSLINILQAQSPEYGSFMASTNPSYEYKVWVRDSAATAIGLDDAGLTQPADKFWRWMASVEQNGMNATYSGNASGTFSTNYGEFDQNLPIGFVAPENDSQGLFLIGSYRHYEQMLSEGQTQQAQSFISDPTVRQALVNSANWIQENIGSNGLGPADYSIWQDMYGYHTFTQVTYAEGLNAASQLASAMGEGNQAQTWATGAETIKDAILRPTTASTPGLWNAQEGHFVEMINPNGTIDNTIDADTNIAAVFGLVSPTSIYATENAQAVENALTQDNFGLSRYQNETFYQSSQWSPGGTYEAQGISPSWPQMTAYDSIVSMDSGNTTQANNDLSWIEQSYDNGGTPPGESYDWARGQPIESTSSEPVTASWYVQDLLNSTGQTSTLMPAITGQ
notes: as for B1
  Km: 1.5 ± 0.1 mM
  kcat: 0.025 ± 0.002 s⁻¹
  kcat/Km: 17 M⁻¹ s⁻¹
